Measured values published in patent publication US12269859B2, “Synthetic immune receptors and methods of use thereof” (Angeles Therapeutics, Inc., priority 2016, dated 2025).

System: target antigen-expressing cell line
Assay: Jurkat NFAT-GFP assay, coculture with target cell lines expressing the respective target antigen (summary Table 10A)
Assay type: cell-based, human
Design: key: The signs +/−, +, 2+ etc. after the name of the cell lines indicate the relative degree of positivity on the Jurkat-NFAT-GFP assay as measured by the % GFP positive cells; +: relative degree of positivity on the Jurkat-NFAT-GFP assay as measured by the % GFP positive cells; 2+: relative degree of positivity on the Jurkat-NFAT-GFP assay as measured by the % GFP positive cells
Outline: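 Readout is % GFP+ cells by FACS, graded +/− to 2+ relative to parental reporter cells. Jurkat-NFAT-GFP cells stably transduced with SIR constructs (puromycin-selected) were mixed with target-antigen-expressing cell lines at roughly 1:2 effector:target and cocultured ~4–18 h.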

Molecule | NFAT-GFP ASSAY Positive Cell lines (coculture with L363 cells) | NFAT-GFP ASSAY Positive Cell lines (coculture with U266 cells)
012517-B12 (protein) MALPVTALLLPLALLLHAARPLEGKPIPNPLLGLDSTGSGEDLKNVFPPEVAVFEPSKAEIAHTQKATLVCLATGFYPDHVELSWWVNGKEVHSGVCTDPQPLKEQPALNDSRYCLSSRLRVSATFWQNPRNHFRCQVQFYGLSENDEWTQDRAKPVTQIVSAEAWGRADCGITSASYHQGVLSATILYEILLGKATLYAVLVSALVLMAMVKRKDSRGRAKRSGSGATNFSLLKQAGDVEENPGPTSMALPVTALLLPLALLLHAARPDVVMTQTPLSLSVTPGQPASISCRSSQSLVHNNGNTYLHWYLQKPGQSPQLLIYKVSNRFSGVPDRFSGSGSGTDFTLKISRVEAEDVGVYFCSQSTHVPPYTFGGGTKVEIKGGGGSGGGGSGGGGSEVQLVESGGGLVQPGGSLRLSCAASGFTFSDYYMAWVRQAPGKGLEWVAEINYDGSSTYYVDSVKGRFTISRDNAKNSLYLQMNSLRAEDTAVYYCARDRGFYFDYWGQGTTVTVSSTREQKLISEEDGSGIQNPDPAVYQLRDSKSSDKSVCLFTDFDSQTNVSQSKDSDVYITDKCVLDMRSMDFKSNSAVAWSNKSDFACANAFNNSIIPEDTFFPSSDVPCDVKLVEKSFETDTNLNFQNLSVIGFRILLLKVAGFNLLMTLRLWSSRAKRSGSGVKQTLNFDLLKLAGDVESNPGPSRGHMTEYKPTVRLATRDDVPRAVRTLAAAFADYPATRHTVDPDRHIERVTELQELFLTRVGLDIGKVWVADDGAAVAVWTTPESVEAGAVFAEIGPRMAELSGSRLAAQQQMEGLLAPHRPKEPAWFLATVGVSPDHQGKGLGSAVVLPGVEAAERAGVPAFLETSAPRNLPFYERLGFTVTADVEVPEGPRTWCMTRKPGA | + | 2+
012517-D12 (protein) MALPVTALLLPLALLLHAARPLEGKPIPNPLLGLDSTGSGEDLKNVFPPEVAVFEPSKAEIAHTQKATLVCLATGFYPDHVELSWWVNGKEVHSGVCTDPQPLKEQPALNDSRYCLSSRLRVSATFWQNPRNHFRCQVQFYGLSENDEWTQDRAKPVTQIVSAEAWGRADCGITSASYHQGVLSATILYEILLGKATLYAVLVSALVLMAMVKRKDSRGRAKRSGSGATNFSLLKQAGDVEENPGPTSMALPVTALLLPLALLLHAARPDVVMTQTPLSLSVTPGQPASISCRSSQSLVHSNGLTYLHWYLQKPGQSPQLLIYKVSNRFSGVPDRFSGSGSGTDFTLKISRVEAEDVGVYFCSQSTHVPPFTFGGGTKVEIKGGGGSGGGGSGGGGSEVQLVESGGGLVQPGGSLRLSCAASGFTFSDYYMAWVRQAPGKGLEWVASINYDGESTYYVDSVKGRFTISRDNAKNSLYLQMNSLRAEDTAVYYCARDRGYYFDYWGQGTTVTVSSTREQKLISEEDGSGIQNPDPAVYQLRDSKSSDKSVCLFTDFDSQTNVSQSKDSDVYITDKCVLDMRSMDFKSNSAVAWSNKSDFACANAFNNSIIPEDTFFPSSDVPCDVKLVEKSFETDTNLNFQNLSVIGFRILLLKVAGFNLLMTLRLWSSRAKRSGSGVKQTLNFDLLKLAGDVESNPGPSRGHMTEYKPTVRLATRDDVPRAVRTLAAAFADYPATRHTVDPDRHIERVTELQELFLTRVGLDIGKVWVADDGAAVAVWTTPESVEAGAVFAEIGPRMAELSGSRLAAQQQMEGLLAPHRPKEPAWFLATVGVSPDHQGKGLGSAVVLPGVEAAERAGVPAFLETSAPRNLPFYERLGFTVTADVEVPEGPRTWCMTRKPGA | U266 (+), L363 (+) | U266 (+), L363 (+)
012517-P12 (protein) MALPVTALLLPLALLLHAARPLEGKPIPNPLLGLDSTGSGEDLKNVFPPEVAVFEPSKAEIAHTQKATLVCLATGFYPDHVELSWWVNGKEVHSGVCTDPQPLKEQPALNDSRYCLSSRLRVSATFWQNPRNHFRCQVQFYGLSENDEWTQDRAKPVTQIVSAEAWGRADCGITSASYHQGVLSATILYEILLGKATLYAVLVSALVLMAMVKRKDSRGRAKRSGSGATNFSLLKQAGDVEENPGPTSMALPVTALLLPLALLLHAARPDIVMTQSHKFMSTSVGDRVSITCKASQDVSTAVAWYQQKPGQSPKLLIYSASYRYTGVPDRFTGSGSGTDFTFTISSVQAEDLAVYYCQQHYSTPPYTFGGGTKLEIKGGGGSGGGGSGGGGSQVQLQQSGPELVKPGASVKISCKASGYAFSSSWMNWVKQRPGQGLEWIGRIYPGDGDTKYNGKFKGKATLTADKSSSTAYMQLSSLTSVDSAVYFCARSTMIATGAMDYWGQGTSVTVSSTREQKLISEEDGSGIQNPDPAVYQLRDSKSSDKSVCLFTDFDSQTNVSQSKDSDVYITDKCVLDMRSMDFKSNSAVAWSNKSDFACANAFNNSIIPEDTFFPSSDVPCDVKLVEKSFETDTNLNFQNLSVIGFRILLLKVAGFNLLMTLRLWSSRAKRSGSGVKQTLNFDLLKLAGDVESNPGPSRGHMTEYKPTVRLATRDDVPRAVRTLAAAFADYPATRHTVDPDRHIERVTELQELFLTRVGLDIGKVWVADDGAAVAVWTTPESVEAGAVFAEIGPRMAELSGSRLAAQQQMEGLLAPHRPKEPAWFLATVGVSPDHQGKGLGSAVVLPGVEAAERAGVPAFLETSAPRNLPFYERLGFTVTADVEVPEGPRTWCMTRKPGA | (+/−) | U266 (+/−), L363
022817-N08 (protein) MALPVTALLLPLALLLHAARPDVVMTQTPLSLSVTPGQPASISCRSSQSLVHNNGNTYLHWYLQKPGQSPQLLIYKVSNRFSGVPDRFSGSGSGTDFTLKISRVEAEDVGVYFCSQSTHVPPYTFGGGTKVEIKLEEQKLISEEDLGSGEDLKNVFPPEVAVFEPSKAEIAHTQKATLVCLATGFYPDHVELSWWVNGKEVHSGVCTDPQPLKEQPALNDSRYCLSSRLRVSATFWQNPRNHFRCQVQFYGLSENDEWTQDRAKPVTQIVSAEAWGRADCGITSASYHQGVLSATILYEILLGKATLYAVLVSALVLMAMVKRKDSRGRAKRSGSGATNFSLLKQAGDVEENPGPTSMDWIWRILFLVGAATGAHSFEEVQLVESGGGLVQPGGSLRLSCAASGFTFSDYYMAWVRQAPGKGLEWVAEINYDGSSTYYVDSVKGRFTISRDNAKNSLYLQMNSLRAEDTAVYYCARDRGFYFDYWGQGTTVTVSSTREQKLISEEDLGSGIQNPDPAVYQLRDSKSSDKSVCLFTDFDSQTNVSQSKDSDVYITDKCVLDMRSMDFKSNSAVAWSNKSDFACANAFNNSIIPEDTFFPSSDVPCDVKLVEKSFETDTNLNFQNLSVIGFRILLLKVAGFNLLMTLRLWSSRAKRSGSGVKQTLNFDLLKLAGDVESNPGPSRGHMTEYKPTVRLATRDDVPRAVRTLAAAFADYPATRHTVDPDRHIERVTELQELFLTRVGLDIGKVWVADDGAAVAVWTTPESVEAGAVFAEIGPRMAELSGSRLAAQQQMEGLLAPHRPKEPAWFLATVGVSPDHQGKGLGSAVVLPGVEAAERAGVPAFLETSAPRNLPFYERLGFTVTADVEVPEGPRTWCMTRKPGA | (+/−) | U266 (+/−), L363
012517-O12 (protein) MALPVTALLLPLALLLHAARPLEGKPIPNPLLGLDSTGSGEDLKNVFPPEVAVFEPSKAEIAHTQKATLVCLATGFYPDHVELSWWVNGKEVHSGVCTDPQPLKEQPALNDSRYCLSSRLRVSATFWQNPRNHFRCQVQFYGLSENDEWTQDRAKPVTQIVSAEAWGRADCGITSASYHQGVLSATILYEILLGKATLYAVLVSALVLMAMVKRKDSRGRAKRSGSGATNFSLLKQAGDVEENPGPTSMALPVTALLLPLALLLHAARPDIQMTQSSSYLSVSLGGRVTITCKASDHINNWLAWYQQKPGNAPRLLISGATSLETGVPSRFSGSGSGKDYTLSITSLQTEDVATYYCQQYWSTPWTFGGGTKLEIKGGGGSGGGGSGGGGSQVQLQQSGAELARPGASVKLSCKASGYTFTSYWMQWVKQRPGQGLEWIGAIYPGDGDTRYTQKFKGKATLTADKSSSTAYMQLSSLASEDSAVYYCARGKVYYGSNPFAYWGQGTLVTVSATREQKLISEEDGSGIQNPDPAVYQLRDSKSSDKSVCLFTDFDSQTNVSQSKDSDVYITDKCVLDMRSMDFKSNSAVAWSNKSDFACANAFNNSIIPEDTFFPSSDVPCDVKLVEKSFETDTNLNFQNLSVIGFRILLLKVAGFNLLMTLRLWSSRAKRSGSGVKQTLNFDLLKLAGDVESNPGPSRGHMTEYKPTVRLATRDDVPRAVRTLAAAFADYPATRHTVDPDRHIERVTELQELFLTRVGLDIGKVWVADDGAAVAVWTTPESVEAGAVFAEIGPRMAELSGSRLAAQQQMEGLLAPHRPKEPAWFLATVGVSPDHQGKGLGSAVVLPGVEAAERAGVPAFLETSAPRNLPFYERLGFTVTADVEVPEGPRTWCMTRKPGA | +/− | +
012517-N12 (protein) MALPVTALLLPLALLLHAARPLEGKPIPNPLLGLDSTGSGEDLKNVFPPEVAVFEPSKAEIAHTQKATLVCLATGFYPDHVELSWWVNGKEVHSGVCTDPQPLKEQPALNDSRYCLSSRLRVSATFWQNPRNHFRCQVQFYGLSENDEWTQDRAKPVTQIVSAEAWGRADCGITSASYHQGVLSATILYEILLGKATLYAVLVSALVLMAMVKRKDSRGRAKRSGSGATNFSLLKQAGDVEENPGPTSMALPVTALLLPLALLLHAARPDVVMTQSPLSLPVTPGEPASISCRSSQSLVHSNGNTYLHWYLQKPGQSPQLLIYKVSNRFSGVPDRFSGSGSGTDFTLKISRVEAEDVGVYFCSQSTHVPPFTFGGGTKVEIKGGGGSGGGGSGGGGSEVQLVESGGGLVQPGGSLRLSCAASGFTFSDYYMAWVRQAPGKGLEWVADINYDGGSTYYLDSLKSRFTISRDNAKNSLYLQMNSLRAEDTAVYYCARDRGYYFDYWGQGTLVTVSSTREQKLISEEDGSGIQNPDPAVYQLRDSKSSDKSVCLFTDFDSQTNVSQSKDSDVYITDKCVLDMRSMDFKSNSAVAWSNKSDFACANAFNNSIIPEDTFFPSSDVPCDVKLVEKSFETDTNLNFQNLSVIGFRILLLKVAGFNLLMTLRLWSSRAKRSGSGVKQTLNFDLLKLAGDVESNPGPSRGHMTEYKPTVRLATRDDVPRAVRTLAAAFADYPATRHTVDPDRHIERVTELQELFLTRVGLDIGKVWVADDGAAVAVWTTPESVEAGAVFAEIGPRMAELSGSRLAAQQQMEGLLAPHRPKEPAWFLATVGVSPDHQGKGLGSAVVLPGVEAAERAGVPAFLETSAPRNLPFYERLGFTVTADVEVPEGPRTWCMTRKPGA | + | 2+
